The source of these data is article PMC11188837 (mAbs, 2024).

No end group written: not given here. *: point of attachment. FITC = O=C1OC2(c3ccc(O)cc3Oc3cc(O)ccc32)c2ccc(NC(=S)*)cc21; Ahx = NCCCCCC(=O)O

For assay [1], the target named is integrin αVβ6 ectodomain (human) (human, UniProt P06756-1;P18564-1). The assay can be described thus: fluorescence polarisation. On the technique in general: In fluorescence polarisation assays a small probe gives low polarisation when free and higher when bound to something large.
Assay [2] addresses integrin αVβ8 ectodomain (human) (human, UniProt P06756-1;P26012-1). Description: fluorescence polarisation.

integrin αVβ6 ectodomain (human), sequence (P06756 31-992, chain 1 of 2): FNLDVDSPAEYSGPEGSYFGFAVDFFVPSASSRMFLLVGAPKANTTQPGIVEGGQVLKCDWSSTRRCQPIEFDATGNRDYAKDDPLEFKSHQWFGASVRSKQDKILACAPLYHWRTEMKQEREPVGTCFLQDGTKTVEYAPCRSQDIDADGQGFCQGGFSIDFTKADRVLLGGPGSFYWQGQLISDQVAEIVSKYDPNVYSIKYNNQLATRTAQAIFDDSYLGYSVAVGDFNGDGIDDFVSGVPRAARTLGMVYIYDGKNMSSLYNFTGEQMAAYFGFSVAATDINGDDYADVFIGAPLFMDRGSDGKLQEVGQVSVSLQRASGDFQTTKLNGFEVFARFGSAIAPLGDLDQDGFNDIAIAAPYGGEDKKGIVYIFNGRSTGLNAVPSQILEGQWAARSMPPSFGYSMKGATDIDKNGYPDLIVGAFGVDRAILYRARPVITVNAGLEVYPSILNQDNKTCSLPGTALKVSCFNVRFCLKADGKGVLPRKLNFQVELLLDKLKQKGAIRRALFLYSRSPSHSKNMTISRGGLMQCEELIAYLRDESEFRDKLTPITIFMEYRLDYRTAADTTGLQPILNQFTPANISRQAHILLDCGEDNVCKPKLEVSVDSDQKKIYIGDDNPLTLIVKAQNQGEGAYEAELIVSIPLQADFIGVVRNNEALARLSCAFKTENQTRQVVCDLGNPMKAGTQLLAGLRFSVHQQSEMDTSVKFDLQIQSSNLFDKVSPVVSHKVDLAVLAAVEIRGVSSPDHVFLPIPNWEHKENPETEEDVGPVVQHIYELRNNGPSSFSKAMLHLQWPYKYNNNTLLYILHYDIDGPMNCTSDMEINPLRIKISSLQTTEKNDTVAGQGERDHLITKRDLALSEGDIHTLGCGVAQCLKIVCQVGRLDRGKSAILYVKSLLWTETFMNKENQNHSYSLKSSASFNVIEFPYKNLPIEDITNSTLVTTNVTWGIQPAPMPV
integrin αVβ6 ectodomain (human), sequence (P18564 22-709, chain 2 of 2): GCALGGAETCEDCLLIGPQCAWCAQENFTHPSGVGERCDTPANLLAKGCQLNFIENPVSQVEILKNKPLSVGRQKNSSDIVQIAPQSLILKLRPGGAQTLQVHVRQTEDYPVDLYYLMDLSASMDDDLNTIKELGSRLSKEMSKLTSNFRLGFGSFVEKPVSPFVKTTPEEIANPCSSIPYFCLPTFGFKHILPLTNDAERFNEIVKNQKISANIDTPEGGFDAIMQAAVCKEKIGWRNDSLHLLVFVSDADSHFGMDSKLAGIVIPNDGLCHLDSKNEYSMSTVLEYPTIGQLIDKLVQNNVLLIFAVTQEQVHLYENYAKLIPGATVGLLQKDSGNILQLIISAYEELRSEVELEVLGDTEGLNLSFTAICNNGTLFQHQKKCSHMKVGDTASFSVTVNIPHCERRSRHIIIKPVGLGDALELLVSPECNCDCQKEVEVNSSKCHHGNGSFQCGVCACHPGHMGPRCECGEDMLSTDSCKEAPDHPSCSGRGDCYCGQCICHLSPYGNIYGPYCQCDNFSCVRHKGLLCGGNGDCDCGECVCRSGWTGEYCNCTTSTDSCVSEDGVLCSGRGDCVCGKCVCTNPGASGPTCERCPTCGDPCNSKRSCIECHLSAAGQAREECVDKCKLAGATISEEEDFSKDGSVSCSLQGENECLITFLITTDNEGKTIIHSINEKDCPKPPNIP
integrin αVβ8 ectodomain (human), sequence (P06756 31-992, chain 1 of 2): as the sequence (P06756 31-992, chain 1 of 2) above
integrin αVβ8 ectodomain (human), sequence (P26012 43-684, chain 2 of 2): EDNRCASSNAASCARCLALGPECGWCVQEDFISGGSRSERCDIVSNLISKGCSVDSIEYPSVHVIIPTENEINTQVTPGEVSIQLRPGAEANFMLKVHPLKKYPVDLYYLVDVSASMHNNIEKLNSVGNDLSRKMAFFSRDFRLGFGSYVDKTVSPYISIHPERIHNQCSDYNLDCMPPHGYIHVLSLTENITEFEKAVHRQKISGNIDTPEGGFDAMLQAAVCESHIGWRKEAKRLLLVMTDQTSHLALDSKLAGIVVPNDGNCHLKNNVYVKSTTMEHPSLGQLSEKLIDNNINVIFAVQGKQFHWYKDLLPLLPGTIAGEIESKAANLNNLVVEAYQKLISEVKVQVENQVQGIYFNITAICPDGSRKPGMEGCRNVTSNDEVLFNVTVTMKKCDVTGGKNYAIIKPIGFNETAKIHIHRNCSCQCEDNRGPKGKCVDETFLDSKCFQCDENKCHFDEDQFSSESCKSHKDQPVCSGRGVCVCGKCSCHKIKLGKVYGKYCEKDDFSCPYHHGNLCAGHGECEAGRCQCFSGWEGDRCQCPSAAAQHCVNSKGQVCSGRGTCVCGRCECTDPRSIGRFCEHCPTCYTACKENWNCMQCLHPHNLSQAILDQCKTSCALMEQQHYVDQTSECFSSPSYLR

Consider {FITC-Ahx}-GRGDLGRLKK [FITC-labeled aminocaproic acid-GRGDLGRLKK peptide], for which the binding result in assay [1] and in assay [2] was “binds” each time.
